For the experiment, the target named is FGF receptor-3c on human osteosarcoma cell line (ATCC, CRL 1543) (human) (UniProt P22607). As to the kind of experiment: cell-based or functional assay.
Sequence of UniProt P22607 (P22607 23-806): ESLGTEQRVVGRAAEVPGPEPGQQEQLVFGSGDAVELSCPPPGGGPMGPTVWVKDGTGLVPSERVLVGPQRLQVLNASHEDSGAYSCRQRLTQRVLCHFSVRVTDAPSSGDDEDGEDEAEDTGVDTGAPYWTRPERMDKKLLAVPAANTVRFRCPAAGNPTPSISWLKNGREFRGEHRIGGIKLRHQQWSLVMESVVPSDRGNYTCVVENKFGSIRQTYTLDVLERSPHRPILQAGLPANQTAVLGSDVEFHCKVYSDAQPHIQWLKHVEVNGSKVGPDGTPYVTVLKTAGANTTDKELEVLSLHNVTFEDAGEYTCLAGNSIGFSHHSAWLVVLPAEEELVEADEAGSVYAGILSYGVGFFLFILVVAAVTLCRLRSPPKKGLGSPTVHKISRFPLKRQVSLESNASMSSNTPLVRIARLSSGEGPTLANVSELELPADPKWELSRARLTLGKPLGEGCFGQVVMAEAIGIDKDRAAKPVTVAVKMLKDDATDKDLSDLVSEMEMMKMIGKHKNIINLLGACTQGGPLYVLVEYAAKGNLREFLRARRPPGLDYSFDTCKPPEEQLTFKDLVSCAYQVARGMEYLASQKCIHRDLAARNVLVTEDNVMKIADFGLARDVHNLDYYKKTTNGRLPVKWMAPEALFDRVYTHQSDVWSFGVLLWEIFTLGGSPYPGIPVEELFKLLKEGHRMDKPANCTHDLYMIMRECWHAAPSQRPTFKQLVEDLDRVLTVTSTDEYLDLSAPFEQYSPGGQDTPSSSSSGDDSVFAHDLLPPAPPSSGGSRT

The substance FGF-18-saporin conjugate registered an LD50 (sensitivity of cell line to the FGF-18-saporin conjugate) of under 1 nM.

Values taken from patent EP1234033B1.
